The assay addresses GST fusion protein of the α1-syntrophin PDZ domain (UniProt Q61234). The assay is described as follows: pull-down; GST fusion proteins immobilised on beads, incubated 1 to 2 h at 4 °C with lysates of MEFs expressing HA-tagged DGKζ constructs; washed at least four times with ice-cold lysis buffer; bound DGKζ detected by anti-HA immunoblot; in some panels cells were treated with vehicle, 100 nM PMA, or 1 μM Gö6976 before PMA.

GST fusion protein of the α1-syntrophin PDZ domain, sequence (Q61234 81-164): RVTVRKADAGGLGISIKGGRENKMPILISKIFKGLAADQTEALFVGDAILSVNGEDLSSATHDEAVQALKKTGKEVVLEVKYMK
HA-tagged DGKζ^M1 (all four serine residues in the MARCKS domain changed to aspartate), sequence (Q13574 whole entry, the tested form may be a part): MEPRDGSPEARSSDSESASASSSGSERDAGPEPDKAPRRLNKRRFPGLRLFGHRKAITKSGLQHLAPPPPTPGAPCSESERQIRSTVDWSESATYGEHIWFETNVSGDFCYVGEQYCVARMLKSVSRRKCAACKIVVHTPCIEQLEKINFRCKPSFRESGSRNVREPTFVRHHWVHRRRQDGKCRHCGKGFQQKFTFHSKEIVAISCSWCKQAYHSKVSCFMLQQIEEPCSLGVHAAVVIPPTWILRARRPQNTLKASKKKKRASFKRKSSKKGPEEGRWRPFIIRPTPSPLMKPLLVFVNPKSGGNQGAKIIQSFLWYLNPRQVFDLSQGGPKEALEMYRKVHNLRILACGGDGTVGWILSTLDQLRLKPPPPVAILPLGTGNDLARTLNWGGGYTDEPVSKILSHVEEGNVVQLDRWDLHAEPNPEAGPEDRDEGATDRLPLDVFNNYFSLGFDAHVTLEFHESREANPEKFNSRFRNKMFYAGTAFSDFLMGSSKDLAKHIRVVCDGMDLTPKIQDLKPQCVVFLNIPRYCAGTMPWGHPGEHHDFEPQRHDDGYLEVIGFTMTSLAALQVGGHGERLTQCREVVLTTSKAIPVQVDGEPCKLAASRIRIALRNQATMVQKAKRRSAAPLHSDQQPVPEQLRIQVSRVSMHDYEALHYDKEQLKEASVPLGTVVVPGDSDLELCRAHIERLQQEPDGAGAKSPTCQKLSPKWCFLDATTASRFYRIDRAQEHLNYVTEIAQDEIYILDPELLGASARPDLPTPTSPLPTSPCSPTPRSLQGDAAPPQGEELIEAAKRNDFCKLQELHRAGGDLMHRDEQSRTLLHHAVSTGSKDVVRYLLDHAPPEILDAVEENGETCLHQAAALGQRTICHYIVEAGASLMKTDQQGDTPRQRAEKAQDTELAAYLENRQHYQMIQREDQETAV

“HA-tagged DGKζ^M1 (all four serine residues in the MARCKS domain changed to aspartate) (from UniProt Q13574 1-928) (enzyme)” gave a fold binding against DGKζ^WT of 2.5 fold.

The values above are taken from publication PMC8042443.
